How the values were obtained:
[1] = molecular target: T1, ADAM 8 (mouse) catalytic domain (Mus musculus, UniProt Q05910); test: Inhibition assay with ADAM 8 catalytic domain; format: biochemical; conditions: fluorescamine assay; read-out: inhibition constant, ADAM 8 (mouse)
T1 construct: The ADAM 8 catalytic domain was expressed and purified from E. coli as described (22); made in house; host or cells: E. coli
T1 sequence (Q05910 196-395 limits assumed): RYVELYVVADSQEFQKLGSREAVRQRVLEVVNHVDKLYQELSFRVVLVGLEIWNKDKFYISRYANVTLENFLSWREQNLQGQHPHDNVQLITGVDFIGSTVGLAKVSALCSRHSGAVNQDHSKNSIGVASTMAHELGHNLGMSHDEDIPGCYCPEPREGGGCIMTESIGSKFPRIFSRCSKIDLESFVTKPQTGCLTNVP
Method: Inhibition assays with ADAM 8. The ADAM 8 catalytic domain was expressed and purified from E. coli as described (22). A substrate based on the L-selectin cleavage site, Dnp-INorIeuQKLDKSFSMIKE-NH2 (SEQ ID NO 20), was used to monitor enzyme activity with a fluorescamine assay. From a concentrated 50 mM solution in DMSO, the substrate was diluted 1:500 in 25 mM HEPES, pH 8.0, 0.0006% Brij-35. To 100 μl of diluted substrate was added either 5 μl of buffer (Tris, pH 8.0, 150 mM KCl) or 5 μl of ADAM10 prodomain (1-10 μM). Zero time points were taken by diluting 12.5 μl of the reaction mixture into 100 μl of fluorescamine buffer (50 mM HEPES, pH 8.0, 0.2 M NaCl, 0.01 M CaCl2, 0.01% Brij-35) in a 96-well black-coated plate. Before measuring fluorescence, 3 μl of a 1% solution of fluorescamine in DMSO was added to each well. The plate was allowed to incubate for 10 min in the dark before measuring fluorescence (excitation wavelength at 390 nm, emission wavelength at 485 nm). For assays with TACE and ADAM8 prodomains, a fluorescent substrate was used to monitor activity at concentrations of prodomains ranging from 1-4.7 μM.
Calculation of inhibition constants. The amount of activity was calculated by subtracting the ADAM 10 prodomain control from the ADAM 10 prodomain with enzyme. […]

[2] = tested on: CD23 shedding in Ramos cells; test: CD23 release from Ramos cells, soluble CD23 ELISA; format: cell-based; conditions: 150-600 nM, IL-4, 24 hr, FIG. 2A
Method: ADAM 10 prodomains were also tested in assays to determine if ADAM 10 protein functions as a CD23 sheddase. Cells (100,000 per well) were seeded in round-bottomed 96-well plates (Sarstedt, Newton, N.C.) in 0.2 ml of media supplemented with IL-4 with inhibitors (A10 23-215 150-600 nM, GM6001 10-50 μM, TAPI-2 10-50 μM, or TIMPs 250 nM) or vehicle controls (A10 23-215 buffer: 25 mM NaH2PO4 pH 7.0, 125 mM KCl, 75 mM NaCl 20% glycerol, PBS, or dimethyl sulfoxide). Cells were cultured for 24 hr. The conditioned medium was harvested by centrifugation (2000×g, 15 min). The conditioned medium was assayed by ELISA for soluble CD23 according to the manufacturers' instructions (BD Biosciences, Invitrogen).

[3] = molecular target: T2, TACE (human) Cat/Dis (Homo sapiens, UniProt P78536); test: Inhibition assay with TACE catalytic/disintegrin construct, fluorescent substrate; format: biochemical; conditions: room temperature; read-out: inhibition constant, TACE (human) Cat/Dis
T2 construct: containing the catalytic/disintegrin domains; purchased R & D Systems (Minneapolis, Minn., USA)
Method: Inhibition assays with TACE and ADAM 10. Activity of TACE catalytic/disintegrin, TACE catalytic, or ADAM10 catalytic/disintegrin constructs was monitored at 3 minute intervals using the fluorescent substrate, Dabcyl-LAQAHomoPheRSC(Fluorescein)-NH2 (SEQ ID NO 17) with excitation 485 nm and emission 530 nm. The substrate was diluted from a 10 mM stock in DMSO to 10 μM in assay buffer containing 20 mM Tris, pH 8.0, and 0.0006% Brij-35. Reactions were run in a 96-well black-coated plate with either ADAM10 prodomain (10 nM-1.0 μM) alone or with enzyme. Concentrations of enzyme ranged from 0.5-2.0 nM for TACE and 5-15 nM for ADAM10. For assays with TACE and ADAM8 prodomain, the range of concentrations varied from 1-4.7 μM.
Calculation of inhibition constants. The amount of activity was calculated by subtracting the ADAM 10 prodomain control from the ADAM 10 prodomain with enzyme. All inhibition assays were performed at room temperature and the data fit to the following equation using Sigma Plot software:
[formula] where If is fractional inhibition, I is the inhibitor concentration and Ki is the inhibition constant.

[4] = molecular target: T3, mouse ADAM 10 catalytic domain (Mus musculus, UniProt O35598); test: Inhibition of mouse ADAM 10 catalytic domain (unpublished observation); format: biochemical
T3 construct: mouse ADAM 10 catalytic domain (unpublished observation)
T3 sequence (O35598 221-457 limits assumed): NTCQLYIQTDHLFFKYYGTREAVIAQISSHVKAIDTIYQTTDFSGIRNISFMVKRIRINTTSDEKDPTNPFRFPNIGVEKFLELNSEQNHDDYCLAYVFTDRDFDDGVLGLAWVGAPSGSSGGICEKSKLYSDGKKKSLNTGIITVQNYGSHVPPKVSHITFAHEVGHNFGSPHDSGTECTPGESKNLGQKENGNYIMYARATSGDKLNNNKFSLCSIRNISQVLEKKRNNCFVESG
Method: Mechanism of ADAM 10 prodomain inhibition. For metalloproteinases that exist as zymogens, the presence of a cysteine in their prodomains is often necessary for inhibition of catalytic activity. […] For some of the ADAM family members, the cysteine is required for efficient inhibition of the enzyme. Therefore, a test was conducted to determine whether the cysteine in the putative cysteine switch of ADAM10 prodomain affected the potency of inhibition by preparing a C-terminal His tag construct with the only cysteine mutated to serine. […] The wild type prodomains (23-213), containing either the N- or C-terminal His tags, were both efficient inhibitors of ADAM10 (Table II), with inhibition constants of 75 and 48 nM respectively.

T2 sequence (P78536 215-671 limits assumed): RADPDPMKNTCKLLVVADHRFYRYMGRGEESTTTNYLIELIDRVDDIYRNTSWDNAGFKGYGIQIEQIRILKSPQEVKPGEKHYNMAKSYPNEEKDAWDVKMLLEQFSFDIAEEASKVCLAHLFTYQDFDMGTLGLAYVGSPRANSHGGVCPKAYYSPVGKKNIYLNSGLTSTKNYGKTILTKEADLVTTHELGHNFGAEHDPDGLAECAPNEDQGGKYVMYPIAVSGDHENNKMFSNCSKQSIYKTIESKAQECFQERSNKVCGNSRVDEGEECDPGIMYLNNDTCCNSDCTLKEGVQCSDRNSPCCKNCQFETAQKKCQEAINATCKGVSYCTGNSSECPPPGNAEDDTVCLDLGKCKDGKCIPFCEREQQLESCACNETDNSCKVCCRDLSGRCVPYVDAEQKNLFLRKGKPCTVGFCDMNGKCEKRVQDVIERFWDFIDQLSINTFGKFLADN

Ki [1]: > 10000 nM | Ki [3]: > 3000 nM | Ki [4]: 17 ± 10 nM
B1: C173S ProADAM 10 23-213 (C-terminal His tag): mouse ADAM 10 prodomain 23-213 with cysteine 173 mutated to serine, C-terminal His tag (protein, UniProt O35598 23-213, looked up, variant C173S)
chain: NPLNKYIRHYEGLSYNVDSLHQKHQRAKRAVSHEDQFLLLDFHAHGRQFNLRMKRDTSLFSDEFKVETSNKVLDYDTSHIYTGHIYGEEGSFSHGSVIDGRFEGFIKTRGGTFYIEPAERYIKDRILPFHSVIYHEDDINYPHKYGPQGGSADHSVFERMRKYQMTGVEEGARAHPEKHAASSGPELLRKK
modifications: pro-form C-terminal His tag
notes: mouse ADAM 10 prodomain 23-213 with cysteine 173 mutated to serine, C-terminal His tag
inhibition of CD23 shedding, Ramos cells [2]: about 30%
